According to PMC2836542 (International Journal of Biological Sciences, 2010):

Biological target: E2F-1/Y411A (UniProt Q01094 1-437, Y411A)
Experiment: co-IP

Sequence of E2F-1/Y411A (Q01094 whole entry Y411A): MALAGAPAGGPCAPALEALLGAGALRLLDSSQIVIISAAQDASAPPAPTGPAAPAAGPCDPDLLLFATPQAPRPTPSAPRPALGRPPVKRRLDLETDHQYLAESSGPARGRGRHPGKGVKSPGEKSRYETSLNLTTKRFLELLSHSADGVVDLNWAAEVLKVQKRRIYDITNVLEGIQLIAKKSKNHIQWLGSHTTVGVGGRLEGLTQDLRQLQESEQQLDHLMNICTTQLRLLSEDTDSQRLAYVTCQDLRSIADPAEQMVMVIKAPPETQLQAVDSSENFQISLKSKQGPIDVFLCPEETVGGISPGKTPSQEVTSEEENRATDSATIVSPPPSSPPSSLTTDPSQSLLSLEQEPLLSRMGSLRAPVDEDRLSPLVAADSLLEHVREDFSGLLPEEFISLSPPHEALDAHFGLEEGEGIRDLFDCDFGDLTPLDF

B1: pRB (natural protein, mouse (endogenous in ψ-CRE), UniProt P13405 1-921, looked up)
chain: MPPKAPRRAAAAEPPPPPPPPPREDDPAQDSGPEELPLARLEFEEIEEPEFIALCQKLKVPDHVRERAWLTWEKVSSVDGILEGYIQKKKELWGICIFIAAVDLDEMPFTFTELQKSIETSVYKFFDLLKEIDTSTKVDNAMSRLLKKYNVLCALYSKLERTCELIYLTQPSSALSTEINSMLVLKISWITFLLAKGEVLQMEDDLVISFQLMLCVVDYFIKFSPPALLREPYKTAAIPINGSPRTPRRGQNRSARIAKQLENDTRIIEVLCKEHECNIDEVKNVYFKNFIPFINSLGIVSSNGLPEVESLSKRYEEVYLKNKDLDARLFLDHDKTLQTDPIDSFETERTPRKNNPDEEANVVTPHTPVRTVMNTIQQLMVILNSASDQPSENLISYFNNCTVNPKENILKRVKDVGHIFKEKFANAVGQGCVDIGVQRYKLGVRLYYRVMESMLKSEEERLSIQNFSKLLNDNIFHMSLLACALEVVMATYSRSTLQHLDSGTDLSFPWILNVLNLKAFDFYKVIESFIKVEANLTREMIKHLERCEHRIMESLAWLSDSPLFDLIKQSKDGEGPDNLEPACPLSLPLQGNHTAADMYLSPLRSPKKRTSTTRVNSAANTETQAASAFHTQKPLKSTSLALFYKKVYRLAYLRLNTLCARLLSDHPELEHIIWTLFQHTLQNEYELMRDRHLDQIMMCSMYGICKVKNIDLKFKIIVTAYKDLPHAAQETFKRVLIREEEFDSIIVFYNSVFMQRLKTNILQYASTRPPTLSPIPHIPRSPYKFSSSPLRIPGGNIYISPLKSPYKISEGLPTPTKMTPRSRILVSIGESFGTSEKFQKINQMVCNSDRVLKRSAEGGNPPKPLKKLRFDIEGADEADGSKHLPAESKFQQKLAEMTSTRTRMQKQRMNESKDVSNKEEK
fold less binding than E2F-1/wt: 5 fold less
